Source: patent US20160039943A1 (TRANSLATIONAL SCIENCES, published 2016)

B1: native human α2-antiplasmin (other, UniProt P08697 40-491, looked up)
chain: NQEQVSPLTLLKLGNQEPGGQTALKSPPGVCSRDPTPEQTHRLARAMMAFTADLFSLVAQTSTCPNLILSPLSVALALSHLALGAQNHTLQRLQQVLHAGSGPCLPHLLSRLCQDLGPGAFRLAARMYLQKGFPIKEDFLEQSEQLFGAKPVSLTGKQEDDLANINQWVKEATEGKIQEFLSGLPEDTVLLLLNAIHFQGFWRNKFDPSLTQRDSFHLDEQFTVPVEMMQARTYPLRWFLLEQPEIQVAHFPFKNNMSFVVLVPTHFEWNVSQVLANLSWDTLHPPLVWERPTKVRLPKLYLKHQMDLVATLSQLGLQELFQAPDLRGISEQSLVVSGVQHQSTLELSEVGVEAAAATSIAMSRMSLSSFSVNRPFLFFIFEDTTGLPLFVGSVRNPNPSAPRELKEQQDSPGNKDFLQSLKGFPRGDKLFGPDLKLVPPMEEDYPQFGSPK
modifications: radioiodinated (125I) in the binding assays
notes: mature; Bought native protein; also called native human α2-AP; native α2-AP

Tests used:
human Lys-plasmin [1] = molecular target: T1, human Lys-plasmin (human, UniProt P00747 97-810); assay: cell-based or functional assay
human Lys-plasmin [2] = molecular target: T1, human Lys-plasmin; assay: k1, rate constant of reversible complex formation, from continuous inhibition kinetics with S-2251
Procedure: (§1) Native α₂-AP (1.8 μM) was pre-incubated with or without of MAbs (49, 77, Dig-control; 1.8 μM or RWR 1.8 μM and 18 μM) for 60 min at 4° C. The fast inhibition of plasmin, micro-plasmin and trypsin was examined by a continuous method as described (Wiman, B. and Collen, D. On the kinetics of the reaction between human antiplasmin and plasmin. Eur J Biochem 1978; 84: 573-578). The serine protease (20 nM) was added to a cuvette containing S-2251 (500 μM) in 300 μl of TBS buffer, and the change in absorbance at 405 nm was recorded at 0.1-min intervals prior to and after the addition of 10 μl of α₂-AP (1.8 μM) or preformed α₂-AP/MAb complex. The final concentration of α₂-AP in the cuvette was 60 nM. The percentage of residual protease activity was calculated from the initial value (defined as 100%). The inhibition constant (i.e., k₁, the rate constant of reversible complex formation) was determined as described (Turner et al., 2002, J Biol. Chem. 277:33068-33074).

[3] = molecular target: B1; assay: as above
Procedure: as §1

Row | Binder | stoichiometry of inhibition (SI) (human Lys-plasmin [1]) | kon (human Lys-plasmin [2]) | kon [3]
1 | B1 | 1.1 | > 2.6e+06 M⁻¹ s⁻¹ | 
2 | micro-plasmin (enzyme, human, UniProt P00747 562-810, looked up, domain: micro-plasmin; Made as in Reed et al., 1999; also called human micro-plasmin) APSFDCGKPQVEPKKCPGRVVGGCVAHPHSWPWQVSLRTRFGMHFCGGTLISPEWVLTAAHCLEKSPRPSSYKVILGAHQEVNLEPHVQEIEVSRLFLEPTRKDIALLKLSSPAVITDKVIPACLPSPNYVVADRTECFITGWGETQGTFGAGLLKEAQLPVIENKVCNRYEFLNGRVQSTELCAGHLAGGTDSCQGDSGGPLVCFEKDKYILQGVTSWGLGCARPNKPGVYVRVSRFVTWIEGVMRNN |  |  | 33000 M⁻¹ s⁻¹
3 | pork trypsin (enzyme, UniProt P00761 9-231, looked up) IVGGYTCAANSIPYQVSLNSGSHFCGGSLINSQWVVSAAHCYKSRIQVRLGEHNIDVLEGNEQFINAAKIITHPNFNGNTLDNDIMLIKLSSPATLNSRVATVSLPRSCAAAGTECLISGWGNTKSSGSSYPSLLQCLKAPVLSDSSCKSSYPGQITGNMICVGFLEGGKDSCQGDSGGPVVCNGQLQGIVSWGYGCAQKNKPGVYTKVCNYVNWIQQTIAAN |  |  | 476000 M⁻¹ s⁻¹
